Results on one molecule are retold here after patent US20230093399A1, “METHODS FOR GENERATING PLURIPOTENT STEM CELL-DERIVED BROWN FAT CELLS” (AgeX Therapeutics, Inc., priority 2013, published 2023).

Test [1] has as its system cell line E15 and the line W10. As to the kind of experiment: Cell lines E15 and W10 in micromass versus HyStem-C culture with BMP4, gene expression. The test is classed as cell-based, human. To be noted: micromass conditions supplemented with 10 ng/mL BMP4. How it is done:
In addition, the incubation of hEP cell lines in HyStem-C (BioTime, Inc. Alameda, Calif.) allowed the accumulation of a large amount of data on the biological influence of HyStem-C (BioTime, Inc. Alameda, Calif.) on diverse cell types. […] This physiological effect on myofibroblastic differentiation seen in many lines cultured in HyStem-C (BioTime, Inc. Alameda, Calif.) beads (i.e., the strong reduction in MYH11 expression) has therapeutic implications in vivo, such as in inhibiting fibrosis or adhesions. It also is of benefit in surgical settings where cells could be transplanted to regenerate tissue function while inhibiting adhesions and related fibrotic process at the surgical site.
The present invention utilizes micromass differentiations to generate high-density cultures, thereby predisposing hEP cells to differentiation in the presence of exogenous factors. Differentiation by micromass culture was performed according to the manufacturer's (BioTime) instructions (Chondrogenesis Differentiation Kit ES-K42). Briefly, cells were cultured in the undifferentiated state, trypsinized (0.25% w/v trypsin/EDTA (Invitrogen)), diluted 1:3 with PBS (Ca and Mg free), and resuspended at a cell density of 2.0×10^7 cells/ml in their respective growth media. […]

A further test has as its system cell line E3. The test can be described thus: Differentiation of clonal hEP cell line E3 in HyStem beads, Illumina microarray gene expression. The test is classed as cell-based, human. The conditions noted are these: E3. How it is done:
Differentiation medium is high glucose DMEM (CellGro Cat. No. 15-013-CV) with Pyruvate, 1 mM (Gibco Cat. 11360), Pen:Strep 100U/ml:100 ug/ml (Gibco Cat. No. 504284), Glutamax 2 mM (Gibco Cat. No. 35050), Dexamethasone 0.1 uM (Sigma, St. Louis, Mo., Cat. No. D1756-100), L-Proline 0.35 mM (Sigma Cat. No. D49752), 2-phospho-L-Ascorbic Acid 0.17 mM (Sigma, Cat. No. 49792, Fluka), and ITS Premix (BD, Franklin Lakes, N.J., sterile Cat. No. 47743-628) with a final concentration 6.25 ug/ml insulin, 6.25 ug/ml transferrin, 6.25 ng/ml selenious acid, serum albumin 1.25 mg/ml, 5.35 ug/ml linoleic acid. In various differentiation conditions, the Differentiation medium is supplemented with various growth factors or other differentiation factors as described herein.
The Gelin-S® component (10 mg of thiol-modified gelatin (BioTime)) is dissolved in 1.0 ml of degassed deionized water to prepare a 1% w/v solution, and polyethylene glycol diacrylate (10 mg of PEGDA) is dissolved in 0.5 ml of degassed deionized water to prepare a 2% w/v solution. Then, HyStem (1 ml, 1% w/v) is mixed with Gelin-S (1 ml, 1% w/v) immediately before use. Pelleted cells are resuspended in the recently prepared HyStem:Gelin-S (1:1 v/v) mix described above. Upon the addition of the PEGDA cross-linker, the cell suspension, at a final concentration of 2.0×10^7 cells/ml is aliquoted (25 μl/aliquot) into six-well plates (Corning® 3516; VWR, PA, USA) after partial gelation. Following complete gelation (20 min), Differentiation Medium is added to each well. Plates were then placed in a humidified incubator at 37° C. with ambient O2 and 10% CO2, and the cells were fed three-times weekly. At the desired time point, hydrogel constructs were either fixed and processed for immunohistochemical analysis or lysed using RLT (Qiagen, CA, USA) with 1% beta-mercaptoethanol for total RNA to analyze transcript expression using quantitative real-time PCR (qRT-PCR) and/or whole-genome microarray.
Total RNA was extracted directly from cells growing in 6-well plates or 10 cm tissue culture dishes using Qiagen RNeasy mini kits according to the manufacturer's instructions. RNA concentrations were measured using a Beckman DU530 or Nanodrop spectrophotometer and RNA quality was determined by denaturing agarose gel electrophoresis or using an Agilent 2100 bioanalyzer. Whole-genome expression analysis was carried out using Illumina Human Ref-8v3 or Human HT-12 v4 BeadArrays, and RNA levels for certain genes were confirmed by qRT-PCR. For the Illumina BeadArrays, total RNA was linearly amplified and biotin-labeled using Illumina TotalPrep kits (Life Technologies, Temecula, Calif., USA), and cRNA was quality-controlled using an Agilent 2100 Bioanalyzer. The cRNA was hybridized to Illumina BeadChips, processed, and read using a BeadStation array reader according to the manufacturer's instructions (Illumina, San Diego, Calif., USA). Values of less than 120 relative fluorescence units (RFUs) were considered as nonspecific background signal.

B1: BMP4: Bone Morphogenetic Protein 4, TGF-beta superfamily member (protein, UniProt P12644 293-408, looked up)
Bone morphogenetic protein 4: SPKHHSQRARKKNKNCRRHSLYVDFSDVGWNDWIVAPPGYQAFYCHGDCPFPLADHLNSTNHAIVQTLVNSVNSSIPKACCVPTELSAISMLYLDEYDKVVLKNYQEMVVEGCGCR
As to B1, the MYH11 expression result in test [1] is “strongly induced”. For the same molecule, in the test with cell line E3 (HyStem beads supplemented with 10 ng/ml BMP4, FIG. 2), the “expression of C19ORF80 transcript” value is “highest expression”. In addition, the PCK1 transcript expression entry in the test with cell line E3 (HyStem beads with 10 ng/ml BMP4 or 100 ng/ml BMP7, FIG. 5) is “relatively high levels”.
